Earlier results on one substance are cited in article PMC4316816.

Broadly, the Kd is the concentration at which binding is half-saturated.

The target of this series is ANP (UniProt P01160).
Chain of UniProt P01160 (P01160 124-151): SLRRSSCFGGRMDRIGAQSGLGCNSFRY

As for GC-A/NPRA (from UniProt P16066), the Kd is 24 nM.
